{"source": "the supplement of paper PMC11865577"}
{"test_system": "TO-N3 (biotin conjugate)", "assay": "pull-down binding Z-score (relative to library population); higher = stronger binding", "details": "RNA library: Library-2", "outline": "(§1)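 Binding is given as a Z-score against the library mean and standard deviation, calculated after removing the beads-only signal and averaging barcoded replicate probes without their highest and lowest values. Cy5- or Cy3-end-labelled RNA library (1 μg) was heat-folded in phosphate/NaCl/KCl buffer and incubated 60 min at 25 °C with streptavidin beads bearing 100 pmol of biotin-conjugated small molecule. After three washes, RNA eluted in hot SDS was hybridised to a DNA barcode microarray for 20 h at 55.5 °C.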"}
{"sequence": "CUUGAUUUAAAUGUCCAUACAAUUAAG [hsa-mir-124-1]", "pull-down binding Z-score": -0.179}
{"sequence": "CUUGAUUUAAUGUCAUACAAUUAAG [hsa-mir-124-2]", "pull-down binding Z-score": -0.928}
{"sequence": "CUUGAUUUAAUGUCUAUACAAUUAAG [hsa-mir-124-3]", "pull-down binding Z-score": -0.159}
{"sequence": "CUUGCAGAAUUAAUGGAAUGCUG [hsa-mir-676]", "pull-down binding Z-score": 0.41}
{"sequence": "CUUGCGGGGCCUUCGCCGCACACAAG [hsa-mir-99b]", "pull-down binding Z-score": 0.328}
{"sequence": "CUUGCUGUGACAUGACAAAAAUAAG [hsa-mir-302d]", "pull-down binding Z-score": 0.357}
{"sequence": "CUUGCUUUGAAACUAAAGAAGUAAG [hsa-mir-302a]", "pull-down binding Z-score": -0.193}
{"sequence": "CUUGGCACCUUUGGCCUUAG [hsa-mir-4540]", "pull-down binding Z-score": 0.112}
{"sequence": "CUUGGCUUCAAUUUACUCCCAGG [hsa-mir-4446]", "pull-down binding Z-score": 0.101}
{"sequence": "CUUGGGCCCAUUCCUUUCCUUACCCUAC [hsa-mir-6798]", "pull-down binding Z-score": 0.541}
{"sequence": "CUUGUGGUAUUAGUCCGCACAAG [hsa-mir-100]", "pull-down binding Z-score": 0.334}
{"sequence": "CUUGUGGUGAAGUGGACCGCACAAG [hsa-mir-99a]", "pull-down binding Z-score": -0.0222}
{"sequence": "CUUUAGCUAUUCUGAAUGCCUAAAG [hsa-mir-4662a]", "pull-down binding Z-score": -0.375}
{"sequence": "CUUUAGGCAUUCAGAAUAGCUAAAG [hsa-mir-4662b]", "pull-down binding Z-score": -0.472}
{"sequence": "CUUUCCUCAGCUGAUUUCUUUCUGGGGAGAG [hsa-mir-5186]", "pull-down binding Z-score": -0.52}
{"sequence": "CUUUCCUUUUUGUCUGUACUGGGAAG [hsa-mir-373]", "pull-down binding Z-score": -0.709}
{"sequence": "CUUUCUGUGACUUUAAAAGUAAG [hsa-mir-302b]", "pull-down binding Z-score": -0.844}
{"sequence": "CUUUCUGUUGGCUAAAAGAAAAGAAAG [hsa-mir-518e]", "pull-down binding Z-score": -0.366}
{"sequence": "CUUUCUGUUGUCUAAAAGAAAAGAAAG [hsa-mir-520d]", "pull-down binding Z-score": -0.415}
{"sequence": "CUUUCUGUUGUCUAAAAGAAAAGAACG [hsa-mir-521-1]", "pull-down binding Z-score": -0.124}
{"sequence": "CUUUCUGUUGUCUGAAAGAAAAGAAAA [hsa-mir-522]", "pull-down binding Z-score": 0.617}
{"sequence": "CUUUCUGUUGUCUGAAAGAAAAGAAAG [hsa-mir-520c_520b_519c_519b]", "pull-down binding Z-score": 0.458}
{"sequence": "CUUUCUGUUGUCUGAAAGAAAGGAAAG [hsa-mir-519a-1_519a-2]", "pull-down binding Z-score": -0.572}
{"sequence": "CUUUCUGUUGUCUGAGAGAAAAGAAAG [hsa-mir-520a]", "pull-down binding Z-score": -0.74}
{"sequence": "CUUUGCUACUGCUC [hsa-mir-6072]", "pull-down binding Z-score": -0.000442}
{"sequence": "CUUUGGUGGCUAUGGUUGACUGGGCCACUCAGAG [hsa-mir-4468]", "pull-down binding Z-score": -0.123}
{"sequence": "CUUUGUCAUUAAAACCAAUAACAAAA [hsa-mir-548ap]", "pull-down binding Z-score": 0.0976}
{"sequence": "CUUUGUCUGACUACAAUAUUCAAAAG [hsa-mir-4426]", "pull-down binding Z-score": -0.0832}
{"sequence": "CUUUGUGAUUUUAUGAGAACAAAG [hsa-mir-3173]", "pull-down binding Z-score": -1.22}
{"sequence": "CUUUUAGAGUAAUUGUGAAACUGUUUUUCAAAG [hsa-mir-562]", "pull-down binding Z-score": -0.769}
{"sequence": "CUUUUAUAUCAAGGCACAUAAAAG [hsa-mir-3910-1]", "pull-down binding Z-score": -0.626}
{"sequence": "CUUUUAUGUGCCUUGAUAUAAAAG [hsa-mir-3910-2]", "pull-down binding Z-score": -0.644}
{"sequence": "CUUUUGGAAAAUAGAAAAG [hsa-mir-3184]", "pull-down binding Z-score": -0.433}
{"sequence": "CUUUUGUUCAAAUAAAAAUGCAAAAG [hsa-mir-651]", "pull-down binding Z-score": -1.06}
{"sequence": "CUUUUUGCCACCUGAGCACAGUCAGCAGUCAGCAUAAAA [hsa-mir-4275]", "pull-down binding Z-score": 1.13}
{"sequence": "CUUUUUGCUGAUGGAGGGUCUUGCCUCCAUGGGGAUGGCUG [hsa-mir-4502]", "pull-down binding Z-score": 0.938}
{"sequence": "GAAAAAUCCCUGUUAACUUUC [hsa-mir-6833]", "pull-down binding Z-score": -0.225}
{"sequence": "GAAAACUUUGGAGAAAAAUUUUC [hsa-mir-4659a]", "pull-down binding Z-score": -1.04}
{"test_system": "G-clamp-N3 (biotin conjugate)", "assay": "pull-down binding Z-score (relative to library population); higher = stronger binding", "details": "RNA library: Library-1 (pre-miRNA loops + repeats)", "outline": "as §1"}
{"sequence": "CUGUCUGUUGUCUAAGAAAAGAUCG [hsa-mir-517c_517b]", "pull-down binding Z-score": 0.565}
{"sequence": "CUGUGAAUCCAAGAUCCACA [hsa-mir-4527]", "pull-down binding Z-score": -1.57}
{"sequence": "CUGUGACGUGCUCCAUCACCGGGCAG [hsa-mir-3714]", "pull-down binding Z-score": 0.138}
{"sequence": "CUGUGAGGACAUCCAGGGUCACAG [hsa-mir-125a]", "pull-down binding Z-score": 3.76}
{"sequence": "CUGUGAUAACAACUCAG [hsa-mir-4705]", "pull-down binding Z-score": -1.06}
{"sequence": "CUGUGCAGAACAUCCGCUCACCUGUACAG [hsa-mir-214]", "pull-down binding Z-score": 0.104}
{"sequence": "CUGUGCAGGGCCAACUGUGCACAC [hsa-mir-3681]", "pull-down binding Z-score": 0.785}
{"sequence": "CUGUGCUGUCUCUGAGCACCG [hsa-mir-6827]", "pull-down binding Z-score": 0.0113}
{"sequence": "CUGUGGCCGGUCCCAG [hsa-mir-4656]", "pull-down binding Z-score": -0.405}
{"sequence": "CUGUGGUCUAACCUUUCCCAUCU [hsa-mir-6828]", "pull-down binding Z-score": -1.45}
{"sequence": "CUGUGGUGGCUGCUCAUGCACCACGG [hsa-mir-105-1]", "pull-down binding Z-score": 1.44}
{"sequence": "CUGUGGUGGCUGCUUAUGCACCACGG [hsa-mir-105-2]", "pull-down binding Z-score": 1.15}
{"sequence": "CUGUGGUUUGCUGGCUGCCUCAG [hsa-mir-6736]", "pull-down binding Z-score": -0.566}
{"sequence": "CUGUGUGAGGACUAGAGGCGG [hsa-mir-4523]", "pull-down binding Z-score": 1.39}
{"sequence": "CUGUUCAGGACAAUGCCGUUGUACA [hsa-mir-199a-2]", "pull-down binding Z-score": 0.637}
{"sequence": "CUGUUCAGGACUCCCAAAUUGUACAG [hsa-mir-199b]", "pull-down binding Z-score": -0.893}
{"sequence": "CUGUUCAGGAGGCUCUCAAUGUGUACA [hsa-mir-199a-1]", "pull-down binding Z-score": -0.113}
{"sequence": "CUGUUGAAAGAAAAG [hsa-mir-526a-2]", "pull-down binding Z-score": -0.371}
{"sequence": "CUGUUGUGCCUAAUUCAGAG [hsa-mir-296]", "pull-down binding Z-score": -0.279}
{"sequence": "CUGUUGUUUCAGCUCGACAACAACAG [hsa-mir-3937]", "pull-down binding Z-score": 0.361}
{"sequence": "CUGUUUCUGGUGAAAUAUUCAAACAG [hsa-mir-4433a]", "pull-down binding Z-score": -0.293}
{"sequence": "CUGUUUGUUGUCUGAGAAAAAACA [hsa-mir-520g_520h]", "pull-down binding Z-score": 1.11}
{"sequence": "CUUAAGUGGUUCGGGUAAAUCACUUUAA [hsa-mir-3977]", "pull-down binding Z-score": -1.04}
{"sequence": "CUUAAUAGAUUAAUAUUUGUAAG [hsa-mir-506]", "pull-down binding Z-score": 0.431}
{"sequence": "CUUACUGCCCGGGCCGCCCUCAGUAA [hsa-mir-212]", "pull-down binding Z-score": -1.81}
{"sequence": "CUUACUGUACACGUGGCUGGCAAG [hsa-mir-4428]", "pull-down binding Z-score": -0.412}
{"sequence": "CUUAGAUUUUUCCAUCUUUGUAUCUAG [hsa-mir-29b-2]", "pull-down binding Z-score": 0.453}
{"sequence": "CUUAGUAGGUGAUAGCAUGACUGAC [hsa-mir-5002]", "pull-down binding Z-score": 1.66}
{"sequence": "CUUCACUGGUGCAGUAAGAAG [hsa-mir-7853]", "pull-down binding Z-score": -0.0639}
{"sequence": "CUUCAGAGCAGGGUUUGGUCUGUGCUUCUCUG [hsa-mir-6719]", "pull-down binding Z-score": 0.184}
{"sequence": "CUUCAGCCCCAGGAAGCCUUGGUCGGGGGCAGGAG [hsa-mir-647]", "pull-down binding Z-score": 0.744}
{"sequence": "CUUCCCAUUUAAAAGUAAUGGCACA [hsa-mir-603]", "pull-down binding Z-score": -2.03}
{"sequence": "CUUCCUGAGCACGCUCAUGAUGAGCAAACUGAGCCUCUAAG [hsa-mir-3653]", "pull-down binding Z-score": -0.859}
{"sequence": "CUUCGCGCUAGUUUGUUUGUGUUAAG [hsa-mir-6077]", "pull-down binding Z-score": -0.639}
{"sequence": "CUUCGGUAUUCAUCAAAAAUACCAAAG [hsa-mir-4735]", "pull-down binding Z-score": -0.293}
{"sequence": "CUUCUGCUUCCUCUUAGCGCAGGAG [hsa-mir-1914]", "pull-down binding Z-score": -1.66}
{"sequence": "CUUCUUACUGCACCAGUGAAG [hsa-mir-5683]", "pull-down binding Z-score": -1.53}
{"sequence": "CUUGAUUUAAAUGUCCAUACAAUUAAG [hsa-mir-124-1]", "pull-down binding Z-score": -0.57}
{"sequence": "CUUGAUUUAAUGUCAUACAAUUAAG [hsa-mir-124-2]", "pull-down binding Z-score": -0.895}
{"sequence": "CUUGAUUUAAUGUCUAUACAAUUAAG [hsa-mir-124-3]", "pull-down binding Z-score": -0.412}
{"sequence": "CUUGCAGAAUUAAUGGAAUGCUG [hsa-mir-676]", "pull-down binding Z-score": -1.73}
{"sequence": "CUUGCGGGGCCUUCGCCGCACACAAG [hsa-mir-99b]", "pull-down binding Z-score": 1.51}
{"sequence": "CUUGCUGUGACAUGACAAAAAUAAG [hsa-mir-302d]", "pull-down binding Z-score": -0.853}
{"sequence": "CUUGCUUUGAAACUAAAGAAGUAAG [hsa-mir-302a]", "pull-down binding Z-score": 0.749}
{"sequence": "CUUGGCACCUUUGGCCUUAG [hsa-mir-4540]", "pull-down binding Z-score": 0.795}
{"sequence": "CUUGGCUUCAAUUUACUCCCAGG [hsa-mir-4446]", "pull-down binding Z-score": -1.06}
{"sequence": "CUUGGGCCCAUUCCUUUCCUUACCCUAC [hsa-mir-6798]", "pull-down binding Z-score": -1.1}
{"sequence": "CUUGUGGUAUUAGUCCGCACAAG [hsa-mir-100]", "pull-down binding Z-score": 1.17}
{"sequence": "CUUGUGGUGAAGUGGACCGCACAAG [hsa-mir-99a]", "pull-down binding Z-score": 1.24}
{"sequence": "CUUUAGCUAUUCUGAAUGCCUAAAG [hsa-mir-4662a]", "pull-down binding Z-score": -0.469}
{"sequence": "CUUUAGGCAUUCAGAAUAGCUAAAG [hsa-mir-4662b]", "pull-down binding Z-score": -0.994}
{"sequence": "CUUUCCUCAGCUGAUUUCUUUCUGGGGAGAG [hsa-mir-5186]", "pull-down binding Z-score": -0.72}
{"sequence": "CUUUCCUUUUUGUCUGUACUGGGAAG [hsa-mir-373]", "pull-down binding Z-score": 0.709}
{"sequence": "CUUUCUGUGACUUUAAAAGUAAG [hsa-mir-302b]", "pull-down binding Z-score": -0.444}
{"sequence": "CUUUCUGUUGGCUAAAAGAAAAGAAAG [hsa-mir-518e]", "pull-down binding Z-score": 1.11}
{"sequence": "CUUUCUGUUGUCUAAAAGAAAAGAAAG [hsa-mir-520d]", "pull-down binding Z-score": 0.0447}
